Results: the supplement of paper PMC10567573

B1: FAM189A2 (parent)
chain: VAAALRYLQIFATRRSCIDESQIS
B2: PTPN9 (parent)
chain: ILFSLPPALDWDSVHVPGPHAMTI

Variants of: B1
Assay: protein stability index of a GFP-peptide fusion (GPS, HEK-293T) (PSI 1-6); higher = more stable
Conditions: c terminus: a fixed tail appended
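Note: lentivirally expressed fusions sorted by FACS into six bins by GFP to DsRed ratio, PSI derived from sequencing read proportions per bin multiplied by bin number.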

Protein stability index: each site, then its substitutions
S21: M 3.11 | I 4.41 | L 2.45 | G 1.83 | W 2.67 | C 1.98 | R 2.78 | Y 4.49 | P 1.97 | T 2.03 | Q 2.85 | H 2.45 | E 2.91 | N 1.73 | D 2.28 | K 2.61
E20: G 2.34 | R 1.24 | Y 3.14 | K 3.19 | D 2.1 | W 4.07 | P 3.3 | N 2.85 | Q 2.35 | C 3.76 | S 2.66 | A 1.65 | T 3.24 | L 3.32 | M 2.92
D19: Q 1.13 | M 3.73 | K 3.22 | L 3.03 | Y 4.69 | W 4.35 | F 1.75 | I 2.5 | T 2.36 | G 2.56 | V 3.57 | N 2.04 | P 1.77 | R 2.05
I23: H 1.69 | T 2.18 | C 1.73 | S 1.84 | Q 1.88 | F 2.9 | E 2.76 | M 1.35 | D 1.77 | P 2.46 | W 1.87 | K 1.94 | A 1.24 | R 1.91 | L 1.61 | Y 3.27 | G 1.52 | N 3.01
S24: Q 2.04 | H 2.29 | T 2.85 | P 4.3 | C 3.79 | E 1.52 | F 3.22 | G 2.54 | R 3.04 | A 2.76 | K 1.16 | Y 1.78 | M 2.07 | I 2.9
Q22: E 2.15 | N 1.77 | D 2.32 | G 3 | V 2.87 | C 4.63 | P 2.26 | H 2.61 | W 3.61 | T 1.07 | F 2.04 | S 2.22 | K 2.53 | Y 1.16

Variants of: B2
Assay: as above
Conditions: c terminus: a fixed tail appended

Protein stability index, by site and new letter:
F3: T 2.38 | A 1.1 | C 2.62 | H 2.03 | L 4.01 | E 1.87 | M 1.21 | W 1.61 | N 1.83 | R 2.25 | I 2.7 | Q 3.1 | D 1.77 | Y 2.21 | K 1.95 | S 1.49 | P 2.27
W11: N 2.26 | E 1.57 | H 2 | C 3.67 | G 2.23 | T 2.23 | M 2.73 | V 2.38 | I 3.5 | Y 3.05 | P 2.41 | Q 2.27 | L 2.72 | F 3.1 | R 2.11 | D 1.75 | S 1.9 | A 3.48
H15: K 2.48 | Y 3.15 | G 2.83 | S 1.85 | I 2.88 | P 3.2 | D 2.08 | L 4.13 | C 2.36 | F 2.99 | T 2.94 | Q 1.81 | R 1.44 | A 3.31 | E 2 | V 3.57
I1: V 3.38 | K 2.24 | S 1.99 | P 1.93 | F 1.76 | Q 1.7 | A 2.03 | N 1.8 | R 2.17 | Y 2.41 | W 1.93 | C 1.64 | L 1.85 | D 2.17 | T 2.28 | E 1.71 | M 1.7 | H 1.56 | G 2.6
P6: Q 2.46 | A 3.2 | M 1.89 | L 4.02 | K 1.97 | R 3.66 | G 1.32 | Y 2.91 | W 2.15 | I 3.44 | C 2.37 | F 1.95
V16: T 3.33 | C 3.24 | G 1.99 | F 2.42 | H 2.2 | Q 1.81 | L 2.68 | E 1.38 | I 3.19 | R 2.68 | M 3.21 | A 1.93 | D 2.27 | N 1.74 | S 3.71 | K 2.54
L2: Q 2.47 | M 3.37 | V 2.54 | R 1.7 | N 2.6 | I 3.33 | K 2.73 | A 2.12 | G 1.68 | H 2.3 | E 2.29 | C 3.86 | P 1.93 | T 2.62 | F 2.06 | W 2.54 | D 1.26
D10: N 1.73 | G 2.28 | M 3.42 | E 1.63 | V 2.05 | F 2.68 | I 2.2 | T 2.95 | H 3.79 | K 3.67 | L 2.22 | A 2.86 | W 1.9
S4: W 2.79 | R 2.6 | L 2.55 | D 2.38 | K 1.98 | Q 3.13 | M 3.28 | P 2.01 | G 2.46 | N 2.5 | E 1.75 | T 2.17 | V 2.49 | I 3.06 | F 2.61 | A 2.31 | H 3.16
S13: N 1.81 | L 2.65 | M 2.1 | Y 3.24 | I 3.25 | G 2.02 | D 2.79 | V 2.03 | P 2.4 | Q 2.06 | A 1.88 | K 2.36 | R 3.77 | T 2.42
L9: T 3.24 | M 2.52 | Y 4.25 | S 3.08 | I 1.96 | D 1.83 | N 2.8 | C 2.52 | G 3.71 | A 2.29 | K 2.63 | R 2.07 | F 2.33 | W 4.62 | E 1.93
V14: D 1.5 | T 2.38 | Y 2.26 | F 4.29 | C 2.02 | H 2.43 | Q 2.57 | L 3.32 | N 2.41 | R 2.75 | K 1.66 | I 2.09 | S 2.17 | G 2.1 | E 1.95 | M 3.43
D12: Q 1.88 | A 3.66 | H 2.07 | I 4.7 | N 2.5 | T 2.37 | G 1.97 | M 2.88 | S 3.29 | P 4.93 | W 2.79 | C 2.75
L5: K 2.25 | V 3.76 | N 1.32 | C 2.26 | F 4.35 | M 2.3 | Q 1.47 | S 2.25 | I 1.33 | H 1.76 | R 2.93 | T 2.99 | E 1.47 | W 2 | D 2.43
A8: R 2.43 | N 2.04 | K 2.87 | S 3.4 | H 2.5 | G 2.36 | W 2.68 | M 4.44 | Q 3.82 | C 3.81 | D 1.92 | I 1.81 | F 3.41 | T 3.32
P7: A 1.87 | Q 2.33 | D 1.01 | M 1.68 | E 2.43 | N 2.98 | H 4.13 | F 3.57 | I 2.49 | R 2.18 | V 4.23 | C 2.03
